Assay results taken from patent US20250326840A1 (QURE BIOTECHNOLOGY SHANGHAI, published 2025).
Each block holds one binder with its values, some of them ahead of it.

Legend:
[1] = molecular target: SIRPα V7 fusion Fc (mouse IgG2a) (human); assay: ELISA, SIRPα V7-mouse IgG2a Fc coated, anti-hFab detection; unit from the x axis Log(Conc.(nM))
QP002 = molecular target: T1, QP002 (biotinylated in the blocking assays, sites not given); assay: blocking ELISA: QP001.2 (CD47) coated, biotin-QP002 (SIRPα-FC) mixed with the antibody, HRP-streptavidin; blocked ligand: CD47; unit from the x axis Log[Conc.(ug/ml)]
T1 construct: also called SIRPα-FC; Biotin-QP002

[2] = molecular target: SIRPα V2 fusion Fc (mouse IgG2a) (human); assay: ELISA, SIRPα V2-mouse IgG2a Fc coated, anti-hFab detection; unit from the x axis Log(Conc.(nM))
[3] = molecular target: SIRPα V3 fusion Fc (mouse IgG2a) (human); assay: ELISA, SIRPα V3-mouse IgG2a Fc coated, anti-hFab detection; unit from the x axis Log(Conc.(nM))
[4] = molecular target: SIRPα V8 fusion Fc (mouse IgG2a) (human); assay: ELISA, SIRPα V8-mouse IgG2a Fc coated, anti-hFab detection; unit from the x axis Log(Conc.(nM))
QP094 (human SIRPα V1 …) [5] = molecular target: T2, QP094 (human SIRPα V1 ECD(E31-R370)-flag-his) (human, UniProt P78324 31-370); assay: SPR, Biacore
T2 construct: the construct carries flag and his tags; also called SIRPαV1-flag-his; SIRPαV1-his (QP094)

QP096 (human SIRPα V2 …) [6] = molecular target: T3, QP096 (human SIRPα V2 ECD(E31-R370)-flag-his) (human); assay: SPR, Biacore
T3 construct: the construct carries flag and his tags; also called SIRPαV2-Flag-his; Human SIRPα V2 (QP096)
Target sequence in this assay (chain, as listed by the source limits assumed): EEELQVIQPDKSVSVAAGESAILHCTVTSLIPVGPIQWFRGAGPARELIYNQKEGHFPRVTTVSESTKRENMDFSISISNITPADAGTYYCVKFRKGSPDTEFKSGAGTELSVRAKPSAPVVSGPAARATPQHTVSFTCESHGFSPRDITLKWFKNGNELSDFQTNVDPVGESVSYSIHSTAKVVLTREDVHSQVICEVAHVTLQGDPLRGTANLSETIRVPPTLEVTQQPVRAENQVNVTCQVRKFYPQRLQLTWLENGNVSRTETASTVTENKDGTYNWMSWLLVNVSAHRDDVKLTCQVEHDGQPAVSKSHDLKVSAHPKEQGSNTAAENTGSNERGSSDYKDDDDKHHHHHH

[7] = molecular target: SIRPα V10 fusion Fc (mouse IgG2a) (human); assay: ELISA, SIRPα V10-mouse IgG2a Fc coated, anti-hFab detection; unit from the x axis Log(Conc.(nM))
QP094 (human SIRPα V1 …) [8] = molecular target: T2, QP094 (human SIRPα V1 …); assay: binding ELISA, antigen coated
QP096 (human SIRPα V2 …) [9] = molecular target: T3, QP096 (human SIRPα V2 …); assay: binding ELISA, antigen coated
[10] = molecular target: T4, SIRPα V4 fusion Fc (mouse IgG2a) (human, limits assumed); assay: ELISA, SIRPα V4-mouse IgG2a Fc coated, anti-hFab detection; unit from the x axis Log(Conc.(nM))
T4 chain: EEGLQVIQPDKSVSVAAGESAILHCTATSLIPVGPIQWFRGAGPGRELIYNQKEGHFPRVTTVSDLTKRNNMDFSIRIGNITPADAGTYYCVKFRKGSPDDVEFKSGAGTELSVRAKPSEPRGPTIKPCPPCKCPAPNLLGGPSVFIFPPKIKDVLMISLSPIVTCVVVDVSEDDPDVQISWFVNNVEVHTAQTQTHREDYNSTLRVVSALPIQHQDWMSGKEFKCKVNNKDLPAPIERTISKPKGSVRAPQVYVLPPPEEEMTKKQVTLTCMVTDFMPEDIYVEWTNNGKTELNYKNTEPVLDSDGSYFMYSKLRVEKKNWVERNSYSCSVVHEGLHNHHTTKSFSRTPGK

QP095 (human SIRPα V2 …) = molecular target: T5, QP095 (human SIRPα V2 ECD(E31-R370)-mFC(IgG2a)) (human); assay: ELISA, QP095 (SIRPα V2) coated, anti-hFab detection; unit from the x axis Log(Conc.(nM))
T5 construct: also called human SIRPα V2 recombinant protein (QP095)

QP093 (human SIRPα V1 …) = molecular target: T6, QP093 (human SIRPα V1 ECD(E31-R370)-mFC(IgG2a)) (human); assay: ELISA, QP093 (SIRPα V1) coated, anti-hFab detection; unit from the x axis Log(Conc.(nM))
T6 construct: also called Human SIRPα V1 recombinant protein (QP093)
T6 chain: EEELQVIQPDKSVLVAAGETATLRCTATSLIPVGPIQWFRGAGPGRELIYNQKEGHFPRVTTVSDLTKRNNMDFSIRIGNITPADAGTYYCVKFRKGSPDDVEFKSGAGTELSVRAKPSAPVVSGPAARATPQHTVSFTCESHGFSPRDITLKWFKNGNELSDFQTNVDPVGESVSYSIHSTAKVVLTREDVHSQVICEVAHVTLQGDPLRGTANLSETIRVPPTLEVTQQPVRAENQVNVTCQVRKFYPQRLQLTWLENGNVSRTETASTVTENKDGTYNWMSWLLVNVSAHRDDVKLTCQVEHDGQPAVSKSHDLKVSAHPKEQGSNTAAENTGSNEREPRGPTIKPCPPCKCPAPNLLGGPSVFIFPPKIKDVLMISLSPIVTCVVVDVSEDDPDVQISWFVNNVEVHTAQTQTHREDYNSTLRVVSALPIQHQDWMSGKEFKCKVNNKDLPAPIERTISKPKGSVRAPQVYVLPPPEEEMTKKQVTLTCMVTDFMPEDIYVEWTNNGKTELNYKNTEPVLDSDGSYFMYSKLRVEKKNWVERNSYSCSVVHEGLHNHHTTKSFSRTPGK

[11] = molecular target: T7, human SIRPα V1 on U-937 cells (human, UniProt P78324 31-504); assay: FACS on U-937 cells
T7 construct: whole, on cells

[12] = molecular target: SIRPα V10 fusion Fc (mouse IgG2a) (human); assay: ELISA, SIRPα V10-mouse IgG2a Fc coated, anti-hFab detection; unit from the x axis; the curve is flat at the baseline, the fit is marked ambiguous (~)
Target sequence in this assay (chain, as listed by the source limits assumed): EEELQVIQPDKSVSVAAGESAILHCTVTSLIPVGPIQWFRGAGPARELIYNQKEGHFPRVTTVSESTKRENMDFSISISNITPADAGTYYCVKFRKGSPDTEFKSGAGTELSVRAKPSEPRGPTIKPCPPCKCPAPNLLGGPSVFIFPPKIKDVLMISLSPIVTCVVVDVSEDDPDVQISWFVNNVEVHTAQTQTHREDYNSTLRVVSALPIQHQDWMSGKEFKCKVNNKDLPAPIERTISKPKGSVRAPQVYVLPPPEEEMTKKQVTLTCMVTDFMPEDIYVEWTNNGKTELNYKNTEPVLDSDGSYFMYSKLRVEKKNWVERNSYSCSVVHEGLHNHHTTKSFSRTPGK

QP094 (human SIRPα V1 …) [13] = molecular target: T2, QP094 (human SIRPα V1 …); assay: SPR, Biacore 8K
QP096 (human SIRPα V2 …) [14] = molecular target: T3, QP096 (human SIRPα V2 …); assay: SPR, Biacore 8K

B2: QP32700279 (antibody, human IgG1, kappa, L234A L235A, V domains shown)
VH: QVQLVQSGAEVKKPGASVKVSCKASGYTFTNYWINWVRQAPGQGLEWIAMIDPSDSETHYNQIFKDRATLTTDTSTSTAYMELRSLRSDDTAVYYCAMDYGSLYAMDYWGRGTLVTVSS
VL: DIVLTQSPDSLAVSLGERATINCRASQSVRSSGYNWIFWYQQKPGQPPKLLIYLASNRDSGVPDRFSGSGSGTDFTLTISSLQAEDVAVYYCQHSRELPTFGQGTKLEIKR
notes: also called SIRPα monoclonal antibody CHO71
EC50 (QP095 (human SIRPα V2 …)): 0.16 nM
EC50 (QP093 (human SIRPα V1 …)): 0.142 nM
EC50 [11]: 0.076 nM

B3: QP250251 (18D5 analog) (antibody, human IgG4 S228P, kappa, V domains shown)
VH: QVQLQQPGAELVRPGSSVKLSCKASGYTFTSYWVHWVKQRPIQGLEWIGNIDPSDSDTHYNQKFKDKASLTVDKSSSTAYMQLSSLTFEDSAVYYCVRGGTGTMAWFAYWGQGTLVTVSA
VL: DVVMTQTPLSLPVSLGDQASISCRSSQSLVHSYGNTYLYWYLQKPGQSPKLLIYRVSNRFSGVPDRFSGSGSGTDFTLKISRVEAEDLGVYFCFQGTHVPYTFGSGTKLEIKR
notes: also called SIRPα antibody 18D5 from OSE
EC50 [12]: ~0.0554 nM
EC50 [10]: 0.125 nM
EC50 [11]: 0.581 nM

B4: QP026249 (KWAR23 analog) (antibody, human IgG4 S228P, kappa)
heavy: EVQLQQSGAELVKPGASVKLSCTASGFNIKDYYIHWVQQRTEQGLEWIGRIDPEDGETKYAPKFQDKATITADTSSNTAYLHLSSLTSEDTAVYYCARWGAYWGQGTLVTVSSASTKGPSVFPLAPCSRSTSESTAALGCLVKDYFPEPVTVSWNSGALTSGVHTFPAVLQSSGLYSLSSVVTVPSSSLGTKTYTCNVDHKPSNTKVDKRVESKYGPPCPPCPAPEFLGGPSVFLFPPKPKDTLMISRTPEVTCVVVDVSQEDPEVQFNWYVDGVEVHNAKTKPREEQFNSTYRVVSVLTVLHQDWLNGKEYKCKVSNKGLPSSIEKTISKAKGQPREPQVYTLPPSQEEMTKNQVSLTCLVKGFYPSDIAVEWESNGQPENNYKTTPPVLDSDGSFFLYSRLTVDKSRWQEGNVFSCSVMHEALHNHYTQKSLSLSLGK
light: QIVLTQSPAIMSASPGEKVTLTCSASSSVSSSYLYWYQQKPGSSPKLWIYSTSNLASGVPARFSGSGSGTSYSLTISSMEAEDAASYFCHQWSSYPRTFGAGTKLELKRTVAAPSVFIFPPSDEQLKSGTASVVCLLNNFYPREAKVQWKVDNALQSGNSQESVTEQDSKDSTYSLSSTLTLSKADYEKHKVYACEVTHQGLSSPVTKSFNRGEC
notes: also called KAWA23 analog; control antibody KWAR23 (QP026249), human IgG4
EC50 (QP095 (human SIRPα V2 …)): 0.249 nM
EC50 [1]: 0.147 nM
EC50 (QP093 (human SIRPα V1 …)): 0.237 nM
IC50 (QP002): 45.4 ng/mL
EC50 [2]: 0.137 nM
Kd (QP094 (human SIRPα V1 …) [13]): 4.69 nM
koff (QP094 (human SIRPα V1 …) [13]): 0.00386 s⁻¹
kon (QP094 (human SIRPα V1 …) [13]): 822000 M⁻¹ s⁻¹
Kd (QP096 (human SIRPα V2 …) [14]): 17.5 nM
koff (QP096 (human SIRPα V2 …) [14]): 0.0242 s⁻¹
kon (QP096 (human SIRPα V2 …) [14]): 1.38e+06 M⁻¹ s⁻¹
EC50 [3]: 0.135 nM
EC50 [4]: 0.18 nM
Kd (QP094 (human SIRPα V1 …) [5]): 3.43 nM
Kd (QP096 (human SIRPα V2 …) [6]): 13.6 nM
EC50 [7]: 0.137 nM
EC50 (QP094 (human SIRPα V1 …) [8]): 5.29 ng/mL
EC50 (QP096 (human SIRPα V2 …) [9]): 3.31 ng/mL
EC50 [10]: 0.115 nM
EC50 [11]: 0.21 nM

Next, values leading:

EC50 [1]: 0.0707 nM
IC50 (QP002): 12.9 ng/mL
EC50 [2]: 0.0682 nM
EC50 [3]: 0.0635 nM
EC50 [4]: 0.0851 nM
Kd (QP094 (human SIRPα V1 …) [5]): 0.0354 nM
Kd (QP096 (human SIRPα V2 …) [6]): 0.0446 nM
EC50 [7]: 0.0682 nM
EC50 (QP094 (human SIRPα V1 …) [8]): 0.651 ng/mL
EC50 (QP096 (human SIRPα V2 …) [9]): 0.624 ng/mL
EC50 [10]: 0.0574 nM
B1: QP256279 (antibody, human IgG4, V domains shown)
VH: B2 VH
VL: DIVLTQSPDSLAVSLGERATINCRASQSVRSSGYNWIFWYQQKPGQPPKLLIYLASNRDSGVPDRFSGSGSGTDFTLTISSLQAEDVAVYYCQHSRELPTFGQGTKLEIK
notes: Human IgG4 heavy constant region and kappa CL

EC50 [11]: 0.158 nM
B5: QP37503751 (1H9 analog) (antibody, human IgG1, kappa, N297A, V domains shown)
VH: QVQLVQSGAEVKKPGASVKVSCKASGYTFTSYWITWVKQAPGQGLEWIGDIYPGSGSTNHIEKFKSKATLTVDTSISTAYMELSRLRSDDTAVYYCATGYGSSYGYFDYWGQGTLVTVSS
VL: DIQMTQSPSSLSASVGDRVTITCRASENIYSYLAWYQQKPGKAPKLLIYTAKTLAEGVPSRFSGSGSGTDFTLTISSLQPEDFATYYCQHQYGPPFTFGQGTKLEIKR
notes: also called hz1H9 hIgG1(N297A)
